Experimental data from the supplement of paper PMC10724198.
± gives the standard deviation of the averaged measurements.

Test system: Saccharomyces cerevisiae
Test: protein stability index of tFT-peptide fusion (C-terminal peptide) (PSI (0-1 scale)); higher = more stable (slower turnover)
Conditions: genetic background: wild type; temperature: 30 C
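Note: PSI is a weighted mean of sequencing reads over stability bins, variants kept only with over 10 reads, mCherry proximal and sfGFP distal, peptide attached via GGGS linker.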

Row | Sequence | protein stability index
1 | TPPAEGTSQTKL | 0.659 ± 0.054
2 | TPPFPPSPFLTL | 0.783 ± 0.039
3 | TPPPFRLPAPSL | 0.71 ± 0.037
4 | TPPPLSAPSYAG | 0.697 ± 0.014
5 | TPPPPPPFPLPP | 0.654 ± 0.031
6 | TPPPSSLVIFFI | 0.675 ± 0.11
7 | TPPRLLLPAATT | 0.7244 ± 0.0061
8 | TPPSPPLPNQLP | 0.696 ± 0.27
9 | TPRLVFFLPLLP | 0.658 ± 0.029
10 | TPRSPFPPLPPP | 0.698 ± 0.049
11 | TPSLLPSPPFPL | 0.733 ± 0.02
12 | TPSPAPPTPFTP | 0.659 ± 0.023
13 | TPSSDFKPTGVR | 0.654 ± 0.054
14 | TPTFALIHPTET | 0.745 ± 0.031
15 | TPTPLTRRPTQV | 0.673 ± 0.041
16 | TPVPPLLSRCYP | 0.691 ± 0.044
17 | TPVSTNHFYTLE | 0.613 ± 0.0094
18 | TPWGPGAAAAPP | 0.684 ± 0.043
19 | TQKKSTQLIKKK | 0.698 ± 0.067
20 | TQRTSRDPLRAP | 0.652 ± 0.016
21 | TQSYLVSLRCGF | 0.796 ± 0.13
22 | TRDLWWNVRVRA | 0.543 ± 0.015
23 | TRFLWYFVPTTK | 0.704 ± 0.071
24 | TRGCIRWRVVRR | 0.7 ± 0.035
25 | TRLSTPGYLILS | 0.724 ± 0.016
26 | TRRHKPNSGTRP | 0.69465 ± 7.1e-06

Row | Sequence | protein stability index
27 | TRSNEERKGKKS | 0.731 ± 0.14
28 | TRTFRPPPALPH | 0.691 ± 0.068
29 | TRTGSTPRGSTR | 0.684 ± 0.069
30 | TRYIRKSKTKGA | 0.643 ± 0.014
31 | TSAASPVRYGGS | 0.65 ± 0.014
32 | TSFNQCRVFCRT | 0.614 ± 0.049
33 | TSLSVGVFSSPV | 0.647 ± 0.02
34 | TSPLPRPPPPSY | 0.61 ± 0.043
35 | TSPPPLPLPSLR | 0.686 ± 0.013
36 | TSPTIPSTPFSN | 0.704 ± 0.087
37 | TSSHLLFISSMI | 0.638 ± 0.034
38 | TSSPHGQSVTEP | 0.67 ± 0.05
39 | TSSRHNEVIKGC | 0.706 ± 0.033
40 | TSTQVMYVSCCL | 0.63 ± 0.014
41 | TSVFPLFSPLRS | 0.721 ± 0.029
42 | TSWGSRWLPYAS | 0.665 ± 0.025
43 | TTFHLCLFQKSS | 0.584 ± 0.0071
44 | TTGGRGSRGGGR | 0.723 ± 0.039
45 | TTKKMVRIVSTV | 0.571 ± 0.052
46 | TTPPPPPRHPAP | 0.696 ± 0.019
47 | TTPTPPPALPLP | 0.69 ± 0.019
48 | TTQGICWMAKGV | 0.695 ± 0.0088
49 | TTTQIIRISKSR | 0.673 ± 0.044
50 | TTYKRRTSKTLS | 0.679 ± 0.024
51 | TVCGWSHLFVYN | 0.669 ± 0.026
52 | TVFGLLHALLYS | 0.724 ± 0.037

Row | Sequence | protein stability index
53 | TVGLSLGRGSGD | 0.67 ± 0.024
54 | TVGSLNSEIAGK | 0.691 ± 0.057
55 | TVIDVIKLMLHL | 0.583 ± 0.044
56 | TVKYVVSTRAFI | 0.627 ± 0.044
57 | TVRFYHGSFRAP | 0.727 ± 0.062
58 | TWGCAGAIRSVG | 0.689 ± 0.094
59 | TWPSGRASGHVG | 0.702 ± 0.0079
60 | TYFMSAFWPPGV | 0.631 ± 0.03
61 | TYGRPICFSFKR | 0.701 ± 0.049
62 | TYKNTVTRTKAY | 0.658 ± 0.02
63 | TYRGKIVAPGVL | 0.656 ± 0.053
64 | TYSTDRPGLHTW | 0.698 ± 0.074
65 | TYTPQVSSVFPI | 0.698 ± 0.018
66 | VACSVVVPGLGG | 0.69 ± 0.017
67 | VAGATGRWIGHG | 0.6771 ± 0.0045
68 | VAGGLRGLGLRA | 0.67 ± 0.053
69 | VAGGWVPGRGEG | 0.69 ± 0.025
70 | VAGWDRETGAWG | 0.58 ± 0.083
71 | VAIRLLCSPLGK | 0.64 ± 0.029
72 | VAIVGCVGKLIR | 0.6468 ± 0.0036
73 | VAKFYQVLMSEG | 0.684 ± 0.014
74 | VALNCWGYQWMG | 0.689 ± 0.04
75 | VALSFYVLRRVP | 0.594 ± 0.015
76 | VALTYRSAGKWA | 0.693 ± 0.058
77 | VAMAGQQLYVTI | 0.665 ± 0.07
78 | VAPPPAPFPPIP | 0.627 ± 0.023

Row | Sequence | protein stability index
79 | VARADLVVTFRI | 0.703 ± 0.073
80 | VASKAGVLFGIR | 0.673 ± 0.12
81 | VAVAAPVVRAVI | 0.69 ± 0.054
82 | VAVPGRFTGEGV | 0.649 ± 0.061
83 | VAVRARRWASGP | 0.727 ± 0.055
84 | VCARSVLFFWAA | 0.782 ± 0.25
85 | VCDFVLALRGLT | 0.649 ± 0.029
86 | VCGCWWWCGVGW | 0.657 ± 0.043
87 | VCGGCCEVEVGM | 0.622 ± 0.041
88 | VCGGVGGGDNGG | 0.739 ± 0.036
89 | VCGLLGGVWLCL | 0.611 ± 0.021
90 | VCGREVKCGEGY | 0.691 ± 0.027
91 | VCGSILSVFRAY | 0.571 ± 0.0016
92 | VCGSIRVIAWGD | 0.671 ± 0.057
93 | VCLPPPPLPPSC | 0.692 ± 0.041
94 | VCPPPIGYHSYQ | 0.6674 ± 0.0019
95 | VCRGWGVCGEWG | 0.6243 ± 0.0025
96 | VCRPLYNSMFGR | 0.691 ± 0.023
97 | VCSRGVCGFLSG | 0.67 ± 0.01
98 | VCTVSGFGVLGA | 0.751 ± 0.15
99 | VCVAVVGGGCRG | 0.5726 ± 0.0032
100 | VCVSLNVGGVRF | 0.658 ± 0.024
101 | VDIKQDTTNLRL | 0.718 ± 0.0086
102 | VDLCRPLSRPTV | 0.703 ± 0.016
103 | VDLGAGVCSAVC | 0.6195 ± 0.0056
104 | VDLYVRRVGVGG | 0.631 ± 0.037

Row | Sequence | protein stability index
105 | VDRRCTGLISSS | 0.668 ± 0.05
106 | VEAWGVGVGSTV | 0.676 ± 0.021
107 | VECPFGTAGCHI | 0.659 ± 0.057
108 | VEESNQILERQS | 0.671 ± 0.0093
109 | VEFGAPGFVEEW | 0.734 ± 0.021
110 | VEFGGICSYVGC | 0.724 ± 0.036
111 | VEFVSKSLGVGW | 0.6756 ± 0.0053
112 | VEPTSDNGVVRR | 0.662 ± 0.025
113 | VESGVREEKCMS | 0.708 ± 0.11
114 | VESSSMKGLLCD | 0.66 ± 0.095
115 | VFACVHPLASLT | 0.681 ± 0.048
116 | VFCSLAWFGLLL | 0.598 ± 0.054
117 | VFFLHGLVIYED | 0.563 ± 0.069
118 | VFGAAGVRFFVG | 0.58 ± 0.022
119 | VFGRSFFRLFRG | 0.6444 ± 0.0031
120 | VFGSYFFIPFFL | 0.498 ± 0.016
121 | VFKLRLPAVPHT | 0.734 ± 0.09
122 | VFLSCPCLFFWV | 0.56 ± 0.022
123 | VFLVLFDRLLPL | 0.669 ± 0.0073
124 | VFMVLLLGFRRF | 0.549 ± 0.011
125 | VFRCSGLFFRDG | 0.6621 ± 0.0033
126 | VFRHIGVIYNNF | 0.65 ± 0.013
127 | VFSALAYVVFKG | 0.598 ± 0.032
128 | VFSLQCVSGIFV | 0.568 ± 0.076
129 | VFTFGAGFGARL | 0.801 ± 0.022
130 | VFVPARGAFHGL | 0.69 ± 0.018

Row | Sequence | protein stability index
131 | VGACGEYGGFFR | 0.67 ± 0.035
132 | VGACWGCGVCPL | 0.755 ± 0.049
133 | VGCGGGEFSLFG | 0.727 ± 0.034
134 | VGCGGRGGRRGW | 0.599 ± 0.019
135 | VGCGVGGIGVLV | 0.712 ± 0.1
136 | VGCLNCWLPFLG | 0.666 ± 0.048
137 | VGCRGTIAIGGR | 0.683 ± 0.0071
138 | VGEGGGEVMGEA | 0.712 ± 0.085
139 | VGFGARGVPGGG | 0.681 ± 0.019
140 | VGFGVRTGETVV | 0.685 ± 0.048
141 | VGFSAFSDSFFV | 0.7224 ± 0.0046
142 | VGFVAWFRNVCR | 0.653 ± 0.044
143 | VGFYRADSLLIF | 0.5763 ± 0.0049
144 | VGGAAVGAGGGV | 0.691 ± 0.054
145 | VGGAWRMGRGGG | 0.658 ± 0.018
146 | VGGEGSAGLQCR | 0.6956 ± 0.0037
147 | VGGFCSWVVAWF | 0.717 ± 0.1
148 | VGGFRVLCVGLG | 0.613 ± 0.04
149 | VGGGGEWCLVRL | 0.685 ± 0.013
150 | VGGGGRARRRGS | 0.701 ± 0.013
151 | VGGVGGLWGGAV | 0.69 ± 0.064
152 | VGGVRGAGCVRG | 0.705 ± 0.024
153 | VGGVWGLGVRPR | 0.693 ± 0.029
154 | VGGWGGVSLGGR | 0.721 ± 0.1
155 | VGIFQLCCALGG | 0.47 ± 0.085
156 | VGILTSVQKHSG | 0.723 ± 0.16

Row | Sequence | protein stability index
157 | VGLGGGVRLGRL | 0.786 ± 0.09
158 | VGLGRPAAAWRR | 0.71 ± 0.00097
159 | VGLLCVGAGFWG | 0.652 ± 0.014
160 | VGLLGCGMNGGR | 0.701 ± 0.068
161 | VGLLLAGKIVTY | 0.604 ± 0.033
162 | VGLVVVRTMGPC | 0.6463 ± 0.00079
163 | VGNGGVWSVGRG | 0.685 ± 0.038
164 | VGRAPDFLYGVW | 0.691 ± 0.044
165 | VGREVSYGRGGD | 0.655 ± 0.031
166 | VGRGCVLGVWEG | 0.715 ± 0.035
167 | VGRGPSAPVSCV | 0.726 ± 0.061
168 | VGRTNHSRVFRT | 0.627 ± 0.035
169 | VGRWGGVSLGGR | 0.715 ± 0.09
170 | VGSLGVGTFRRD | 0.692 ± 0.011
171 | VGSLRAGYFLRL | 0.637 ± 0.043
172 | VGSSLRGWSSRT | 0.804 ± 0.045
173 | VGVAGGRGEEEL | 0.735 ± 0.019
174 | VGVDCGVLWCLF | 0.637 ± 0.015
175 | VGVFDGAVFSWC | 0.726 ± 0.12
176 | VGVGGGRWCGRG | 0.69 ± 0.059
177 | VGVGGVGGFFGC | 0.79 ± 0.037
178 | VGVTLSSFSRLP | 0.693 ± 0.085
179 | VGVVRAGWGGAV | 0.65 ± 0.059
180 | VGVVVGLVRLLG | 0.537 ± 0.039
181 | VGVWTGWDVDCH | 0.742 ± 0.076
182 | VGWGGGESLGWV | 0.694 ± 0.13

Row | Sequence | protein stability index
183 | VGYWGMGFWFSG | 0.65 ± 0.03
184 | VHCNLKLDASNF | 0.719 ± 0.058
185 | VHESARAAGSDW | 0.647 ± 0.062
186 | VHGAQICCIPWY | 0.699 ± 0.063
187 | VHGYVRLIWPTI | 0.696 ± 0.053
188 | VHHFCSPPLPPP | 0.732 ± 0.0095
189 | VHHTPFFSAPHV | 0.647 ± 0.09
190 | VHSPLVHILSCS | 0.582 ± 0.012
191 | VHTCVSYTNCMD | 0.703 ± 0.026
192 | VICRGGHVLLES | 0.72 ± 0.098
193 | VIDHALWCYVGG | 0.605 ± 0.0087
194 | VIFGCVLSQLDT | 0.705 ± 0.023
195 | VIILRWCRVDGF | 0.565 ± 0.031
196 | VIVLVQDVALQL | 0.7 ± 0.065
197 | VKGCKCGRIASY | 0.669 ± 0.063
198 | VKPIFTEYGRYK | 0.626 ± 0.002
199 | VKQGCISSNCKL | 0.762 ± 0.16
200 | VKRPGVGRSSTA | 0.731 ± 0.051
201 | VKTNPEGDGKQE | 0.671 ± 0.021
202 | VKVWRTILRLLD | 0.535 ± 0.0097
